Experimental data from paper doi:10.1101/2020.01.26.920348.
Blank lines part the entries; values can stand above or below the substance they belong to.

Tests used:
Test in all cases: FRET or BRET
[1] = target: YFP-preIQ3-IQD-PCRDD (not stated (human or rat cDNA cloned)) (UniProt Q01668)
[2] = target: YFP-preIQ3-IQD-PCRDC (not stated (human or rat cDNA cloned) | human)
[3] = target: YFP-preIQ3-IQD-PCRDS (not stated (human or rat cDNA cloned) | mouse)

UniProt Q01668, sequence (Q01668 whole entry): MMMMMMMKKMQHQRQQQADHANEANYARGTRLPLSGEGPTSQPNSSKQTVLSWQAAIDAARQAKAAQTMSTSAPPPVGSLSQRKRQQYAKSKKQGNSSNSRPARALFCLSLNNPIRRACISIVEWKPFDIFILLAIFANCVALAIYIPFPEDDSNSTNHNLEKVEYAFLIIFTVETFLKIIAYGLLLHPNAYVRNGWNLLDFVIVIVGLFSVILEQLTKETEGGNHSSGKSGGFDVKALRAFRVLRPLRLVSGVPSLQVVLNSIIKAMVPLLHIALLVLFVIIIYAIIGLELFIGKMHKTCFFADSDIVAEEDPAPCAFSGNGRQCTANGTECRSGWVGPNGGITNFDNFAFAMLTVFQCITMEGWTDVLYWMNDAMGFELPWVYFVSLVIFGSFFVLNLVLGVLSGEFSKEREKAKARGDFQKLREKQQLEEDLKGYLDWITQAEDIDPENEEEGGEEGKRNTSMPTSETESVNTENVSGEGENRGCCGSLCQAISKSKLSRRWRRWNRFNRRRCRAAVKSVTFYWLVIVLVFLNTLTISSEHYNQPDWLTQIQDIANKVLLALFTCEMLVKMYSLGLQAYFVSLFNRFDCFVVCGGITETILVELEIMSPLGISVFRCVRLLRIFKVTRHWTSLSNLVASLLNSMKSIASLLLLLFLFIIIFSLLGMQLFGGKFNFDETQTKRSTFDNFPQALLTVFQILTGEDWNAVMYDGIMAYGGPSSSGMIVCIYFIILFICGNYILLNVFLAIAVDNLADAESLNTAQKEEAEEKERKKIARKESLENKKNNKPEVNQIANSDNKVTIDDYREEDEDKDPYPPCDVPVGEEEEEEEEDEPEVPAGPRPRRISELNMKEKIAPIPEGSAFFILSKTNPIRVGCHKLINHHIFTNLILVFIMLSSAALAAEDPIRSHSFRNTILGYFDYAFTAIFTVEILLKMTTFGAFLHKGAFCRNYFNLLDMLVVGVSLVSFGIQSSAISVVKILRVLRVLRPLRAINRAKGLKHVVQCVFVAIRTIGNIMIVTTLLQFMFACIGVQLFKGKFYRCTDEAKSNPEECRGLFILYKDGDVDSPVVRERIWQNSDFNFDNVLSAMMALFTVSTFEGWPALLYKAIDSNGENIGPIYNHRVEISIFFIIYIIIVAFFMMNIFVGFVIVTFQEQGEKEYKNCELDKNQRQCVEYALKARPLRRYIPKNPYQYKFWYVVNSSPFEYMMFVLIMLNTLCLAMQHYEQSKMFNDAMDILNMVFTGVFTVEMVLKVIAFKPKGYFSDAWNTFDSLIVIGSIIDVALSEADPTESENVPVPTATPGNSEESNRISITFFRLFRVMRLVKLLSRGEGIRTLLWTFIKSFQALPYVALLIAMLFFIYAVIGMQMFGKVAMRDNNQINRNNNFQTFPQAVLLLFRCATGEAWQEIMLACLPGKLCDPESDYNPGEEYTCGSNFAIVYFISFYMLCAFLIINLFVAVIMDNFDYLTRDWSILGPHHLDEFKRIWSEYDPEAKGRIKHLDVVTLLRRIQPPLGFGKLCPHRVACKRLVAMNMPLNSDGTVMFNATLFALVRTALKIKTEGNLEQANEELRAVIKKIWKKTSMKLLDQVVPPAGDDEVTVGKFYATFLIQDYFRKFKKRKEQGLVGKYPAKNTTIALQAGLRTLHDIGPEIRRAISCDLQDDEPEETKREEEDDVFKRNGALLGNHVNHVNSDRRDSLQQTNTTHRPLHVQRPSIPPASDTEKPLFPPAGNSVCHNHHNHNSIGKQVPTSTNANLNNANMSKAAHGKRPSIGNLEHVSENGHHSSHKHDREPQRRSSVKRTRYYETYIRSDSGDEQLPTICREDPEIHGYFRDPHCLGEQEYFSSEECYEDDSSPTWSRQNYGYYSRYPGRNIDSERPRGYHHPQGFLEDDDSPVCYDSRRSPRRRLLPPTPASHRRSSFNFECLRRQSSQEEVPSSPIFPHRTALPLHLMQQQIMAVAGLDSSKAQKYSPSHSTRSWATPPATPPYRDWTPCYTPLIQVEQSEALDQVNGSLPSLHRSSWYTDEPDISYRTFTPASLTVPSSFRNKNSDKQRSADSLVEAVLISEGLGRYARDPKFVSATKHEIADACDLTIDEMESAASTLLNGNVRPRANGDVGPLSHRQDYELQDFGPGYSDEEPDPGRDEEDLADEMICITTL

- relative Kd (normalised to Kd of PD/DF) [1]: 2.3
Substance: PCRDC-DCRDF peptide (PCRD of CaV1.2 joined to DCRD of CaV1.4)

- relative Kd (normalised to Kd of PD/DF) [2]: 11.2
Substance: CFP-DCRDC (distal C-terminal regulatory domain of CaV1.2) (from UniProt Q13936 1-2221) (domain or fragment)

- relative Kd (normalised to Kd of PD/DF) [3]: 18.7
Substance: CFP-DCRDS (distal C-terminal regulatory domain of CaV1.1) (from UniProt Q02789 1-1852) (domain or fragment)
